Positions of bridges follow the written chain, without caps; N, C: chain ends. Non-standard residues stand in square brackets, D forms with d. No end group written: not given here. S5 = C=CCCC[C@](C)(N)C(=O)O; βAla = NCCC(=O)O
Target: mSin3
Experiment: fluorescence polarization

B1: SID2 (peptide)
peptide: [βAla]VRRRI[S5]MLL[S5]AANYLER
modifications: staple 7-11; also: FITC-conjugated in the assay, site not given here
Kd: 12 nM

Source: patent US20120270800A1 (published 2012)
